# Data: patent publication US20190300618A1 (Merck Sharp & Dohme, published 2019)
# T1: W90A
# T1 construct: also called hCD27 W90A
# T1 receptor: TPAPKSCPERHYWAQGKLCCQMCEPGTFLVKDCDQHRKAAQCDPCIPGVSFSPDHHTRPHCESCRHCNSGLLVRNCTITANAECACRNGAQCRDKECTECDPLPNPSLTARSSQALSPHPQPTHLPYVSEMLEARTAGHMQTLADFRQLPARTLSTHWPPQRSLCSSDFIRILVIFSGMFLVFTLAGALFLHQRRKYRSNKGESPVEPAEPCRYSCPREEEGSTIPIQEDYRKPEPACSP
# T2: Q15A
# T2 construct: also called hCD27 Q15A
# T2 receptor: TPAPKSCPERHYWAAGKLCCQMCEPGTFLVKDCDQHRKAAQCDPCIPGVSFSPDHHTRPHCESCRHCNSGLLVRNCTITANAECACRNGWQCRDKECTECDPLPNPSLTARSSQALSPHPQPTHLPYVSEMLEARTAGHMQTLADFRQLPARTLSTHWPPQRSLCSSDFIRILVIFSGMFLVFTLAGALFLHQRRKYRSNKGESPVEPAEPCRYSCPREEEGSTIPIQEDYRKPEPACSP
# T3: P8A
# T3 construct: also called hCD27 P8A
# T3 receptor: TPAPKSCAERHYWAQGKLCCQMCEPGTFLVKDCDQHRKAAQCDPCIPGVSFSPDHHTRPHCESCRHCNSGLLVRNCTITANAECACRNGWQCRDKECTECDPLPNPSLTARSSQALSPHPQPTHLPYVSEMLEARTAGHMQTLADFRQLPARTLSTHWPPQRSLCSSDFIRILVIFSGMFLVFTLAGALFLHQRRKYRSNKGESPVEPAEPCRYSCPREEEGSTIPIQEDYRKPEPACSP
# T4: R37A
# T4 construct: also called hCD27 R37A
# T4 receptor: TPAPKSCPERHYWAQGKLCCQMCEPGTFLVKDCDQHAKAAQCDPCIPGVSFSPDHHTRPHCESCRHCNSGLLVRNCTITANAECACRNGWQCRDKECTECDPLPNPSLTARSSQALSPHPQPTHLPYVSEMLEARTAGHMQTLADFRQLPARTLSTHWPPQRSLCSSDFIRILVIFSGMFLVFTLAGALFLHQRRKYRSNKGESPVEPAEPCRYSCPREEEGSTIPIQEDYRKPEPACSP
# T5: F28A
# T5 construct: also called hCD27 F28A
# T5 receptor: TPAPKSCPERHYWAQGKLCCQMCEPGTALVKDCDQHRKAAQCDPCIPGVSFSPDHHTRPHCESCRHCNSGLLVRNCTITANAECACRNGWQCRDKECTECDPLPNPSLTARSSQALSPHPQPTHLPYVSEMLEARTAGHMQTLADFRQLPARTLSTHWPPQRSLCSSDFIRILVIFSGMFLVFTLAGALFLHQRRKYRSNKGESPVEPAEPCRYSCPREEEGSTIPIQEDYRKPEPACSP
# T6: G16A
# T6 construct: also called hCD27 G16A
# T6 receptor: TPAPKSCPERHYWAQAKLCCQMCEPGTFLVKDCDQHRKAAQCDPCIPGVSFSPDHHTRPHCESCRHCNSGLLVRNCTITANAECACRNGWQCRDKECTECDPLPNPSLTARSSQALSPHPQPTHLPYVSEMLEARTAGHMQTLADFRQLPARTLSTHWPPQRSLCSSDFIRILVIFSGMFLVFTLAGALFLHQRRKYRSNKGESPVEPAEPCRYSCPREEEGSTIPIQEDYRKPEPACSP
# T7: V49A
# T7 construct: also called hCD27 V49A
# T7 receptor: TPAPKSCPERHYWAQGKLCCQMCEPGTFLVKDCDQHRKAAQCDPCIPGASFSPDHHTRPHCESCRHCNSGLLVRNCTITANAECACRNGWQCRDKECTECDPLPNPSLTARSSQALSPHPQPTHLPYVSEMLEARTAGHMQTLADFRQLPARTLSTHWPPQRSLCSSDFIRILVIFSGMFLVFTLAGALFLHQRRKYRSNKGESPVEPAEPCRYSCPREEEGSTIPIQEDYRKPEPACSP
# How the values were obtained:
# [1] = target: human CD27 (A59T), expressed on cells (human) (UniProt P26842); assay: cell-based or functional assay
# [2] = target: human CD27 (wild type), expressed on cells (human) (UniProt P26842); assay: cell-based or functional assay
# [3] = target: Macaca mulatta CD27 (mmCD27), expressed on cells (Macaca mulatta (rhesus); same entry given for cynomolgus monkey); assay: flow cytometry MFI on CD4+ T cells from rhesus peripheral blood
# [4] = target: human CD27 (wild type), expressed on cells (human) (UniProt P26842); assay: flow cytometry MFI on CD4+ T cells from peripheral blood
# [5] = target: human CD27 (A59T), expressed on cells (human) (UniProt P26842); assay: cell ELISA on CD27-transfected CHOK1 cells
# [6] = target: human CD27 (wild type), expressed on cells (human) (UniProt P26842); assay: cell ELISA on CD27-transfected CHOK1 cells
# [7] = target: Macaca mulatta CD27 (mmCD27), expressed on cells (Macaca mulatta (rhesus); same entry given for cynomolgus monkey); assay: cell ELISA on CD27-transfected CHOK1 cells
# [8] = target: human CD27 (wild type), expressed on cells (human) (UniProt P26842); assay: cell ELISA on transfected CHO cells
# [9] = target: human CD27 (wild type), expressed on cells (human) (UniProt P26842); assay: flow cytometry MFI on CD8+ T cells from peripheral blood
# [10] = target: human CD27 (wild type), expressed on cells (human) (UniProt P26842); assay: competition cell ELISA on CHO-hCD27; competitor detected: mouse hCD27.15 at 1 µg/ml
# W90A = target: T1, W90A; assay: flow cytometry, CHO-K1; sub-column 2 of 2
# Q15A = target: T2, Q15A; assay: flow cytometry, CHO-K1; sub-column 2 of 2
# P8A = target: T3, P8A; assay: flow cytometry, CHO-K1; sub-column 2 of 2
# R37A = target: T4, R37A; assay: flow cytometry, CHO-K1; single column;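 also: CHO-K1 cells transiently transfected with hCD27 alanine mutant constructs, anti-hCD27 antibody binding measured by flow cytometry, 30 min at 4 °C, wild-type hCD27 binding taken as 100%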
# Method: (§1) The ability of several anti-hCD27 antibodies to bind to a series of hCD27 alanine mutants was determined using CHO-K1 cells, transiently transfected pCI-neo empty vector, pCI-neo.hCD27 and several pCI-neo.CD27Ala mutant constructs.
# (§2) Detached cells were transferred to 96 wells round-bottomed well plates at approximately 1.2×10⁵ cells/well. After spinning down the cells, discarding the supernatants and re-suspending the cells in the residual volume, the primary antibodies were added and incubated for 30 minutes at 4° C. Cells were washed three times with DPBS/BSA 1%, followed by centrifugation, discarding of the supernatants and re-suspension in the residual volume. […] After washing once, antibody binding was detected using the HTS plate reader (FACS Canto II) and FlowJo software for data analysis. Debris, dead cells and doublets were excluded from the analysis. Binding was expressed as the geometric mean of the FITC signal, relative to antibody binding to hCD27, which was set at 100%.
# F28A = target: T5, F28A; assay: flow cytometry, CHO-K1; single column;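 also: CHO-K1 cells transiently transfected with hCD27 alanine mutant constructs, anti-hCD27 antibody binding measured by flow cytometry, 30 min at 4 °C, wild-type hCD27 binding taken as 100%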
# Method: as §1, §2
# G16A = target: T6, G16A; assay: flow cytometry, CHO-K1; single column;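 also: CHO-K1 cells transiently transfected with hCD27 alanine mutant constructs, anti-hCD27 antibody binding measured by flow cytometry, 30 min at 4 °C, wild-type hCD27 binding taken as 100%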
# Method: as §1, §2
# V49A = target: T7, V49A; assay: flow cytometry, CHO-K1; single column;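 also: CHO-K1 cells transiently transfected with hCD27 alanine mutant constructs, anti-hCD27 antibody binding measured by flow cytometry, 30 min at 4 °C, wild-type hCD27 binding taken as 100%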
# Method: as §1, §2
molecule,measurement,setting,value
1F5 hIgG1 (antibody),"Emax (fold change), NF-κB-luciferase reporter assay",[1],1.3 fold change
same,"Fold Change values at 2.5 µg/ml, NF-κB-luciferase reporter assay",[1],1.23 fold change
same,"Emax (fold change), NF-κB-luciferase reporter assay",[2],1.48 fold change
same,"Fold Change values at 2.5 µg/ml, NF-κB-luciferase reporter assay",[2],1.34 fold change
same,"NF-κB luciferase activity, 10 µg/ml fold change (FIG. 7A)",[2],2.23 fold change
same,"NF-κB luciferase activity, 10 µg/ml fold change (FIG. 7B)",[2],1.73 fold change
same,EC50,[3],1.58 nM
same,EC50,[4],1.54 nM
same,EC50,[5],0.326 nM
same,EC50,[6],0.325 nM
same,EC50,[7],0.193 nM
same,fold higher EC50 compared to 131AVH6VL6-hIgG1,[8],4 fold
same,EC50,[9],1.3 nM
same,IC50 (read off the curve),[10],4 nM
1A4 (mouse IgG1) (antibody),% of WT hCD27 binding (geo mean FITC),W90A,96.4%
same,% of WT hCD27 binding (geo mean FITC),Q15A,7.6%
same,% of WT hCD27 binding (geo mean FITC),P8A,79.1%
9F4 (mouse IgG2a) (antibody),% of WT hCD27 binding (geo mean FITC),W90A,85.7%
same,% of WT hCD27 binding (geo mean FITC),Q15A,118%
same,% of WT hCD27 binding (geo mean FITC),P8A,62.2%
"Antibody hCD27.131A (mouse parental 131A) (antibody, V domains shown, mouse IgG1; also called mouse hCD27.131A) VH: QIQLVQSGPELKKPGETVKISCKASGYTFTNYGMNWVKQAPGKGLKWMGWINTNTGEPTYAEEFKGRFAFSLETSATTAYLQINNLKNEDTATYFCAREGDAMDYWGQGTSVTVSS VL: QIVLTQSPAIMSASPGEKVTMTCSASSSVSYMHWYQQKSGTSPKRWIYDTSKLASGVPARFSGSGSGTSYSLTISSMEAEDAATYYCQQWNSYPFTFGSGTKLEIK",% of WT hCD27 binding (geo mean FITC),W90A,102%
same,% of WT hCD27 binding (geo mean FITC),Q15A,136%
same,% of WT hCD27 binding (geo mean FITC),P8A,15.9%
"hCD27.15-6B (humanized hCD27.15, human IgG4, Clone 6B) (antibody, V domains shown, humanized version of hCD27.15 from WO2012/004367 with identical CDR regions; also called hCD27.15 (humanized 6B); hCD27.15 6B humanized antibody) VH: QVQLVQSGAEVKKPGASVKVSCKASGFIIKATYMHWVRQAPGQRLEWMGRIDPANGETKYDPKFQVRVTITADTSASTAYMELSSLRSEDTAVYYCARYAWYFDVWGQGTLVTVSS VL: DIQMTQSPSSLSASVGDRVTITCRASENIYSFLAWYQQKPGKAPKLLIYHAKTLAEGVTSRFSGSGSGTDFTLTISSLQPEDSATYYCQHYYGSPLTFGQGTRLEIKR",% of WT hCD27 binding (geo mean FITC),R37A,106%
same,% of WT hCD27 binding (geo mean FITC),F28A,59.4%
same,% of WT hCD27 binding (geo mean FITC),G16A,141%
same,% of WT hCD27 binding (geo mean FITC),V49A,69%
